This is an account of results in patent publication US20030207838A1.

For the assay, the target named is Fas (CD95) expressed on vascular smooth muscle cells (human) (UniProt P25445). Put plainly: cell-based or functional assay.
Sequence of UniProt P25445 (P25445 26-335): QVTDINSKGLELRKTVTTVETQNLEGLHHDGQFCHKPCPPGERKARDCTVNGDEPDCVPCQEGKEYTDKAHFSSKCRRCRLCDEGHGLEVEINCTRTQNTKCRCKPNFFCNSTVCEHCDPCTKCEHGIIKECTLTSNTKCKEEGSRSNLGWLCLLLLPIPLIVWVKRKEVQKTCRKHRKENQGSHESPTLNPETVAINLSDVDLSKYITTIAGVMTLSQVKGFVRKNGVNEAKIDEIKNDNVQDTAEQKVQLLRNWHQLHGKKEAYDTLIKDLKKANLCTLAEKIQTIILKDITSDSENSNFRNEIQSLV

The substance “anti-Fas antibody IgM clone CH-11 (05-201 Upstate)” gave a percent of apoptotic cells (hypodiploid DNA content) 16 h after treatment, A20-expressing SMC of 33%; a percent of apoptotic cells (hypodiploid DNA content) 16 h after αFas treatment, non-infected (NI) SMC of 1.9%; a percent of apoptotic cells (hypodiploid DNA content) 16 h after αFas treatment, rAd.β-gal-infected SMC of 2.34%; a percent of apoptotic cells after αFas with Actinomycin D (150 nM), NI and rAd.β-gal infected SMC of 28 to 35%.
